Results on one molecule are retold here after patent US20120180150A1 (published 2012).

For this assay, the target named is T1, mouse IP3R1 full length with C-terminal GFP (mouse, UniProt P11881 1-2749).
T1 construct: also called IP3R1-GFP; IP3R-GFP protein; not shown: C-terminal GFP of the pEGFP-N1 vector, with any linker from the cloning site
The assay can be described thus: HA-matrix co-immunoprecipitation from HEK 293 cells, anti-GFP Western blot. The procedure:
Into HEK 293 cells, a full length IP3R1-GFP expression plasmid and each of the KRAP full length, the deletion mutants, or the point-mutant expression plasmids were introduced together with lipofectamine LTX (Invitrogen), respectively, and the resulting cells were incubated for 24 hours. They were then homogenized in an extracting buffer (50 mM Tris-HCl, pH7.5, 140 mM NaCl, 0.5% NP40, 0.25M NDSB-201 (Calbiochem), and protease inhibitors (Complete EDTA-free, Roche)), and the homogenized mixture was centrifuged at 15,000 rpm for 30 minutes. The resulting supernatant was then subjected to immunoprecipitation with HA matrix (Roche) to precipitate the IP3R-GFP protein binding to the KRAP protein, and the precipitated IP3R-GFP protein was detected by Western blots using a rabbit polyclonal antibody (Clonetech) as an anti-GFP antibody. In the experiment using HCT 116 cells, the presence or absence of co-precipitation of the endogenous IP3R protein was investigated without transfection of the IP3R-GFP protein using a mouse monoclonal antibody (BD Transduction Laboratory) as an anti-IP3R3 antibody.

T1 sequence (P11881 whole entry S1044R/E1045K): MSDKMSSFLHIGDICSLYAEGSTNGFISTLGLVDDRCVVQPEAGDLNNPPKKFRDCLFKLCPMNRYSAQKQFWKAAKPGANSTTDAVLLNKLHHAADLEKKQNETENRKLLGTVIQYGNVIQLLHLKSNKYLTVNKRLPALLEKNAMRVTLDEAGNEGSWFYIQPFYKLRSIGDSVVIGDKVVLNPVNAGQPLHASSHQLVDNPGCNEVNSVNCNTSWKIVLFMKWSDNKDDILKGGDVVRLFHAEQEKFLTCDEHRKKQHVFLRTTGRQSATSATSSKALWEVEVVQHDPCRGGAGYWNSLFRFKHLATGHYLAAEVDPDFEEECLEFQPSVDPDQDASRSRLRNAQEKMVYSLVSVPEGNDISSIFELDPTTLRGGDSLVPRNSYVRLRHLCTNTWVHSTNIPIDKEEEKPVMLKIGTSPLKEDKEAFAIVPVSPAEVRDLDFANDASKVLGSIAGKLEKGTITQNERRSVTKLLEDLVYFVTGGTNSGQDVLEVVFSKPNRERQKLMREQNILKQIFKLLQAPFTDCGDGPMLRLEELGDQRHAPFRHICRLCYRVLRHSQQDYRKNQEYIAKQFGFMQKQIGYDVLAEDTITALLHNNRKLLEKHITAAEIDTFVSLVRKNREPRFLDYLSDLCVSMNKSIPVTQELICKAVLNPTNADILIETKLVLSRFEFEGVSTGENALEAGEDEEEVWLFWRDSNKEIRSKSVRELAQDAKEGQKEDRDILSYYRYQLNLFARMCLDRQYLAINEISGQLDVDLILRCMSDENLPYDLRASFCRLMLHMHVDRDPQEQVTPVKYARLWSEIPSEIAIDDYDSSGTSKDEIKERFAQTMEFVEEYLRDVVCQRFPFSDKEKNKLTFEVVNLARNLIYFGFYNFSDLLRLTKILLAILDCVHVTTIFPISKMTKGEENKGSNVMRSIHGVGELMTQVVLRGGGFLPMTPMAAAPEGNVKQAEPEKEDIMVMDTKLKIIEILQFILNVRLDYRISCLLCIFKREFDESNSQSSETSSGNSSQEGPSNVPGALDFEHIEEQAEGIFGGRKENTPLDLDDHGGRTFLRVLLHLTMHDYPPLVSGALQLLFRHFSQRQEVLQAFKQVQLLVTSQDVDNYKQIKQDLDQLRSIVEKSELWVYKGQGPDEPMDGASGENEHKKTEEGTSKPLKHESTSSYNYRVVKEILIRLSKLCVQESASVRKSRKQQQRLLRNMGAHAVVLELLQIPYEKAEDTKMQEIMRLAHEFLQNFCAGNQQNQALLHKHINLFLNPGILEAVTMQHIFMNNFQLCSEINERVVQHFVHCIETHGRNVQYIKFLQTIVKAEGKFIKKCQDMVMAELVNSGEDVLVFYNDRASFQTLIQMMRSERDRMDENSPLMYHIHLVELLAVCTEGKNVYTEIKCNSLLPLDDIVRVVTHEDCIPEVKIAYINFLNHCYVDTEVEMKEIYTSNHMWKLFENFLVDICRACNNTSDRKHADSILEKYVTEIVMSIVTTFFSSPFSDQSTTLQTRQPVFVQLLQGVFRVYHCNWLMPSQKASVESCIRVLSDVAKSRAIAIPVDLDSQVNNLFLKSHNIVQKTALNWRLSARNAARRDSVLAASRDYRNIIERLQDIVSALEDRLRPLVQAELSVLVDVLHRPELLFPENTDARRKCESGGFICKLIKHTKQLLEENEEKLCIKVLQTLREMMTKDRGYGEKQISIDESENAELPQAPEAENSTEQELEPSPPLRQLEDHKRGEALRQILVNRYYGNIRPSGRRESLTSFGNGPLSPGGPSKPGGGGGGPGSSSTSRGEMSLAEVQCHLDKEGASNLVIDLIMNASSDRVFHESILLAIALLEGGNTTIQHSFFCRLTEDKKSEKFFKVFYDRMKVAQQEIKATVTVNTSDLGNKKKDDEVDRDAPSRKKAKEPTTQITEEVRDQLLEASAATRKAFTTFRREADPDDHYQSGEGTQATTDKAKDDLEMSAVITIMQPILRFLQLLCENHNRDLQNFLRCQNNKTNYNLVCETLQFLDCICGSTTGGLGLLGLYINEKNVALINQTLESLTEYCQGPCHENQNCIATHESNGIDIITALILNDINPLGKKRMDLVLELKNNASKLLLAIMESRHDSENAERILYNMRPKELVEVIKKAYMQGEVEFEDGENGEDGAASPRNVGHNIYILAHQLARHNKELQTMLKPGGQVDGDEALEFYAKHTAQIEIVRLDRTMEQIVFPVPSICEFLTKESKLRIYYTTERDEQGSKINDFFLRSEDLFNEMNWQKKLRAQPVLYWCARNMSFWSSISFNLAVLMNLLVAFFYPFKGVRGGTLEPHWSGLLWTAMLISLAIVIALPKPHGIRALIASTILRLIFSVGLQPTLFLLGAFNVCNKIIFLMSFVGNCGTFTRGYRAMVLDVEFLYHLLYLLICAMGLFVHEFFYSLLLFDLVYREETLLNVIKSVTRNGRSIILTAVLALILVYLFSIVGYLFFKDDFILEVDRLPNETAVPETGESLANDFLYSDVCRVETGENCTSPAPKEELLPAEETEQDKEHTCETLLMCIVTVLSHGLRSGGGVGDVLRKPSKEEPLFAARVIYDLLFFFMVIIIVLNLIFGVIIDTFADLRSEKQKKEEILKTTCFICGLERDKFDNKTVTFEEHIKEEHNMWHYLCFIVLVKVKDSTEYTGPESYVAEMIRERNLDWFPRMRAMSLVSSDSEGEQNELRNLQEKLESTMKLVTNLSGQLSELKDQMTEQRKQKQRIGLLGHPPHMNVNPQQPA

B1: mouse KRAP deletion mutant composed of the coiled-coil region only (988-1252), N-terminal HA tag (other)
chain: HMTEEDRYEVDQLQGLRNSVRMELQDLEMQLEERLLGLDEQLRAVRVPSPFRPSALPGMCGSRSVDNLSCPSPLNVMEPVTELMREQSYLKSELGLGLGDMAYEIPPGESSESVFSQATSESSSVCSSPSHTNRRSRGLPGSKPRARLVARKKIFRASVALTPTAPSRTGSVQTPPDLESSEEAGGAEEASPVVGLASHVEEEPEDLSLMPAAEEMHRNVEQDELQQVIREIKESIVGEIRREIVSGLLAAVASSKAPGPKQDSH
notes: not shown: N-terminal HA tag of the pCMV-HA vector
As to B1, the binding result was “no binding”.
